Experimental data published in publication PMC9127112, “Opening opportunities for Kd determination and screening of MHC peptide complexes” (Communications Biology, 2022).

Assays:
[1] = target: empty disulfide-stabilized HLA-A*02:01(Y84C/A139C) complex of heavy chain and beta-2 microglobulin (human); assay: native MS
[2] = target: empty disulfide-stabilized HLA-A*02:01(Y84C/A139C) complex of heavy chain and beta-2 microglobulin (human); assay: nanoscale differential scanning f
[3] = target: empty disulfide-stabilized HLA-A*02:01(Y84C/A139C) in complex with beta-2 microglobulin (human); assay: isothermal analysis of nanoscale

Row | other [1] [%] | other [2] [K] | Kd [3] [nM] | Binder
1 | 43 | 6.4 | – | GLGGGGGGV [GV9, simplified NV9 derivative that retains the anchor residues L and V]
2 | – | – | 360 | GLGGGGGGV [GV9 (…), simplified NV9 derivative that retains the anchor residues L and V]
